The text below walks through data of IntAct's records for PubMed 14504388.

B1: Protein phosphatase 2C 77 (Arabidopsis thaliana (Mouse-ear cress)), O04719 (parent)
chain: MDEVSPAVAVPFRPFTDPHAGLRGYCNGESRVTLPESSCSGDGAMKDSSFEINTRQDSLTSSSSAMAGVDISAGDEINGSDEFDPRSMNQSEKKVLSRTESRSLFEFKCVPLYGVTSICGRRPEMEDSVSTIPRFLQVSSSSLLDGRVTNGFNPHLSAHFFGVYDGHGGSQVANYCRERMHLALTEEIVKEKPEFCDGDTWQEKWKKALFNSFMRVDSEIETVAHAPETVGSTSVVAVVFPTHIFVANCGDSRAVLCRGKTPLALSVDHKPDRDDEAARIEAAGGKVIRWNGARVFGVLAMSRSIGDRYLKPSVIPDPEVTSVRRVKEDDCLILASDGLWDVMTNEEVCDLARKRILLWHKKNAMAGEALLPAEKRGEGKDPAAMSAAEYLSKMALQKGSKDNISVVVVDLKGIRKFKSKSLN
partner: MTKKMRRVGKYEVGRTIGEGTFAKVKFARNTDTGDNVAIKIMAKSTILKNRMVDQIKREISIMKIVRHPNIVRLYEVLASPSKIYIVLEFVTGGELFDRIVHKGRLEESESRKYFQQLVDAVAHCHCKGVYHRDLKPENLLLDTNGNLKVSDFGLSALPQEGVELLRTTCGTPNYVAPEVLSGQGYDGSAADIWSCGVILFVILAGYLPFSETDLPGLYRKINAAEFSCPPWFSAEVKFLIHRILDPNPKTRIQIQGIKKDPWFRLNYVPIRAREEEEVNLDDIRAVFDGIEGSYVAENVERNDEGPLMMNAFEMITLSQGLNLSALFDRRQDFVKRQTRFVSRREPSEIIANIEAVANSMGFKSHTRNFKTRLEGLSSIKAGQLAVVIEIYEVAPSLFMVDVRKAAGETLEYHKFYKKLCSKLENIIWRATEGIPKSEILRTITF
B2: CBL-interacting serine/threonine-protein kinase 24 (Arabidopsis thaliana (Mouse-ear cress)), Q9LDI3 (parent)
chain: B1 partner

The variants in the first assay derive from B1. Particulars: with cipko_arath CIPK24, Q9LDI3.
With MDEVSPAVAVPFRPFTDPHAGLRGYCNGESRVTLPESSCSGDGAMKDSSFEINTRQDSLTSSSSAMAGVDISAGDEINGSDEFDPRSMNQSEKKVLSRTESRSLFEFKCVPLYGVTSICGRRPEMEDSVSTIPRFLQVSSSSLLDGRVTNGFNPHLSAHFFDVYDGHGGSQVANYCRERMHLALTEEIVKEKPEFCDGDTWQEKWKKALFNSFMRVDSEIETVAHAPETVGSTSVVAVVFPTHIFVANCGDSRAVLCRGKTPLALSVDHKPDRDDEAARIEAAGGKVIRWNGARVFGVLAMSRSIGDRYLKPSVIPDPEVTSVRRVKEDDCLILASDGLWDVMTNEEVCDLARKRILLWHKKNAMAGEALLPAEKRGEGKDPAAMSAAEYLSKMALQKGSKDNISVVVVDLKGIRKFKSKSLN [G162D], the “effect of a mutation on the interaction” value is on record as “decreasing interaction”.
The same measure, in the same setting: for MDEVSPAVAVPFRPFTDPHAGLRGYCNGESRVTLPESSCSGDGAMKDSSFEINTRQDSLTSSSSAMAGVDISAGDEINGSDEFDPRSMNQSEKKVLSRTESRSLFEFKCVPLYGVTSICGRRPEMEDSVSTIPRFLQVSSSSLLDGRVTNGFNPHLSAHFFGVYDGHDGSQVANYCRERMHLALTEEIVKEKPEFCDGDTWQEKWKKALFNSFMRVDSEIETVAHAPETVGSTSVVAVVFPTHIFVANCGDSRAVLCRGKTPLALSVDHKPDRDDEAARIEAAGGKVIRWNGARVFGVLAMSRSIGDRYLKPSVIPDPEVTSVRRVKEDDCLILASDGLWDVMTNEEVCDLARKRILLWHKKNAMAGEALLPAEKRGEGKDPAAMSAAEYLSKMALQKGSKDNISVVVVDLKGIRKFKSKSLN [G168D] the value was “decreasing interaction”.

Variants of B2 are the subject of another assay. Particulars: with ABI2, O04719.
On to MTKKMRRVGKYEVGRTIGEGTFAKVKFARNTDTGDNVAIKIMAKSTILKNRMVDQIKREISIMKIVRHPNIVRLYEVLASPSKIYIVLEFVTGGELFDRIVHKGRLEESESRKYFQQLVDAVAHCHCKGVYHRDLKPENLLLDTNGNLKVSDFGLSALPQEGVELLRTTCGTPNYVAPEVLSGQGYDGSAADIWSCGVILFVILAGYLPFSETDLPGLYRKINAAEFSCPPWFSAEVKFLIHRILDPNPKTRIQIQGIKKDPWFRLNYVPIRAREEEEVNLDDIRAVFDGIEGSYVAENVERNDEGPLMMNAFEMITLSQGLNLSALFDRRQDFVKRQTAAVSRREPSEIIANIEAVANSMGFKSHTRNFKTRLEGLSSIKAGQLAVVIEIYEVAPSLFMVDVRKAAGETLEYHKFYKKLCSKLENIIWRATEGIPKSEILRTITF [R340A;F341A], for which the “effect of a mutation on the interaction” value is “decreasing interaction”.
